The record followed here is patent US20210147812A1, “Method of Preparing Cancer Spheroid and Method of Selecting Colorectal Cancer Patient” (Kyo Diagnostics K.K., priority 2017, published 2021).

This experiment has as its system CRC-TIC spheroid lines that carried wild-type RAS/RAF genes (HC6T, HC9T, HC11T, HC21T). Briefly: Stimulation of spheroid growth with EGF and/or bFGF, luminescence-based growth monitoring (GEI). The experiment is classed as cell-based, human. The conditions noted are these: HC11T. How it is done:
Luminescence was determined daily or 3 days later. The cell growth rate for each well was estimated as the proportion of photon counts to those on day 1. Four or six replicates (with similar statistical power) were analyzed for each data point in all experiments except for the chemical compound screening assays.
To investigate whether EGF and bFGF helped spheroid proliferation in the cancer medium as described above, we cultured with EGF and/or bFGF four slow-growing CRC-TIC spheroid lines that carried wild-type RAS/RAF genes (HC6T, HC9T, HC11T, HC21T). Because EGF/bFGF facilitated the growths of these spheroid lines substantially (FIG. 3A), we then quantified their effects by the luminescence-based growth monitoring. To calibrate the effects, we introduced the growth effect index (GEI) defined as the relative growth rate of a treated group to that of its solvent-only control in each paired assay. […] The extents of growth promotion by EGF and bFGF were different depending on the spheroid line. […] In another spheroid line (HC21T), the effects were similar between the two growth factors (FIG. 3B).

B1: EGF: epidermal growth factor, recombinant human protein (protein, UniProt P01133 23-1207, looked up)
Pro-epidermal growth factor: PQHWSCPEGTLAGNGNSTCVGPAPFLIFSHGNSIFRIDTEGTNYEQLVVDAGVSVIMDFHYNEKRIYWVDLERQLLQRVFLNGSRQERVCNIEKNVSGMAINWINEEVIWSNQQEGIITVTDMKGNNSHILLSALKYPANVAVDPVERFIFWSSEVAGSLYRADLDGVGVKALLETSEKITAVSLDVLDKRLFWIQYNREGSNSLICSCDYDGGSVHISKHPTQHNLFAMSLFGDRIFYSTWKMKTIWIANKHTGKDMVRINLHSSFVPLGELKVVHPLAQPKAEDDTWEPEQKLCKLRKGNCSSTVCGQDLQSHLCMCAEGYALSRDRKYCEDVNECAFWNHGCTLGCKNTPGSYYCTCPVGFVLLPDGKRCHQLVSCPRNVSECSHDCVLTSEGPLCFCPEGSVLERDGKTCSGCSSPDNGGCSQLCVPLSPVSWECDCFPGYDLQLDEKSCAASGPQPFLLFANSQDIRHMHFDGTDYGTLLSQQMGMVYALDHDPVENKIYFAHTALKWIERANMDGSQRERLIEEGVDVPEGLAVDWIGRRFYWTDRGKSLIGRSDLNGKRSKIITKENISQPRGIAVHPMAKRLFWTDTGINPRIESSSLQGLGRLVIASSDLIWPSGITIDFLTDKLYWCDAKQSVIEMANLDGSKRRRLTQNDVGHPFAVAVFEDYVWFSDWAMPSVMRVNKRTGKDRVRLQGSMLKPSSLVVVHPLAKPGADPCLYQNGGCEHICKKRLGTAWCSCREGFMKASDGKTCLALDGHQLLAGGEVDLKNQVTPLDILSKTRVSEDNITESQHMLVAEIMVSDQDDCAPVGCSMYARCISEGEDATCQCLKGFAGDGKLCSDIDECEMGVPVCPPASSKCINTEGGYVCRCSEGYQGDGIHCLDIDECQLGEHSCGENASCTNTEGGYTCMCAGRLSEPGLICPDSTPPPHLREDDHHYSVRNSDSECPLSHDGYCLHDGVCMYIEALDKYACNCVVGYIGERCQYRDLKWWELRHAGHGQQQKVIVVAVCVVVLVMLLLLSLWGAHYYRTQKLLSKNPKNPYEESSRDVRSRRPADTEDGMSSCPQPWFVVIKEHQDLKNGGQPVAGEDGQAADGSMQPTSWRQEPQLCGMGTEQGCWIPVSSDKGSCPQVMERSFHMPSYGTQTLEGGVEKPHSLLSANPLWQQRALDPPHQMELTQ
modifications: Pro-epidermal growth factor
notes: epidermal growth factor, recombinant human protein
Consider B1, for which the “extent of growth promotion, bFGF versus EGF” value is “vice versa”.
